For this data set, the target named is hUNG2 N-terminal domain (NTD) (Homo sapiens, UniProt P13051 1-92). As to the kind of experiment: fluorescence anisotropy. On the technique in general: Polarisation of emitted light reports the rotation of a fluorescent probe.
hUNG2 N-terminal domain (NTD), sequence (P13051 1-92): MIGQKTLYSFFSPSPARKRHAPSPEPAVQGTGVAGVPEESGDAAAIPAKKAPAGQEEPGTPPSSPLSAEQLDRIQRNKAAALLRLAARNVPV

B1: NS19FAM duplex (dsDNA)
DNA 1: GCTCTGTACATGAGCAGTG
DNA 2: CACTGCTCATGTACAGAGC
The term Kd denotes a measure of binding affinity in units of concentration. Higher therefore signals a looser complex. B1 had a Kd of 10 µM.
Molecule GCTCTGTACATGAGCAGTG (ssDNA) [NS19FAM ssDNA] showed a Kd of 23 µM.

The values above are taken from article PMC6990647.
